Experimental findings from PMC8113463, “Structural visualization of transcription activated by a multidrug-sensing MerR family regulator” (Nature Communications, 2021) are described below.

As a reminder, the stoichiometry N is a count of units in the complex or per binding partner.

Numbering of substitutions follows the chain as printed.

For one data set, the target named is T1, EcmrR (full length) (Escherichia coli, UniProt A0A8I3B051).
T1 construct: E. coli BL21 Star (DE3); codon-optimised gene; homodimer on promoter DNA with E. coli RNAP-sigma70
The class given is binding. Particulars: second site (site II) in CTD; TPSb+ in site I; 8 mM CHAPSO added before grid preparation; density of the sterol head, relevance of the site left open by the authors.

For another data set, the target named is T2, EcmrR CTD (Escherichia coli, UniProt A0A8I3B051).
T2 construct: E. coli BL21 Star (DE3)
The data set is described as follows: X-ray crystal structure, […] Å. It is filed as binding. Particulars: sites I and II both occupied; detergent of the crystallisation solution, 5 mM.

In data set [1] the target is EcmrR (multidrug-sensing MerR family transcriptional regulator of Escherichia coli), full length, wild type (Escherichia coli). The data set is described as follows: cryo-EM structure.
Data set [2] concerns the target T3, EcmrR (UniProt PDB:6XLK_3 1-268).
T3 sequence: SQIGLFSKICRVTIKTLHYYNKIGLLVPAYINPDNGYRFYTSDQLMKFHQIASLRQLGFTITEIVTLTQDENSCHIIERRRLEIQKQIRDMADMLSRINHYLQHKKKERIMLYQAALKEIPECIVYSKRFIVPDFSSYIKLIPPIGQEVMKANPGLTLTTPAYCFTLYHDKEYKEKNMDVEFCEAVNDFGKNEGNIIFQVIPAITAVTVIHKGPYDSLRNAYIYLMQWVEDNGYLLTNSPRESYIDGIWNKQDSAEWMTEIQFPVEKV
The experiment in a line: cryo-EM (focused map of spacer DNA subcomplex within RPo); TPSb+, CHAPSO; RNAP present in the particle; Complex assembly: core RNAP:σ70:EcmrR-promoter 1:1.4:2, 5 mM MgCl2, 5 mM TPSb+ Br-, 23 °C 3 h, then (initial transcribing complexes) rNTPs 37 °C 10 min; SEC purified; DNA in 20 mM Tris-HCl pH 7.5, 100 mM KCl, 1 mM TCEP; final SEC buffer not given. To be noted: protein: recombinant; tags: expressed as N-terminal His6-Smt3 fusion; chain copies: 2; pre-melted bubble from non-complementary strand segments, blunt ends.

For data set [3], the target named is T3, EcmrR. The experiment in a line: cryo-EM (focused map of spacer DNA subcomplex within RPitc-4nt); TPSb+, CHAPSO; RNAP present in the particle; Complex assembly: core RNAP:σ70:EcmrR-promoter 1:1.4:2, 5 mM MgCl2, 5 mM TPSb+ Br-, 23 °C 3 h, then (initial transcribing complexes) rNTPs 37 °C 10 min; SEC purified; DNA in 20 mM Tris-HCl pH 7.5, 100 mM KCl, 1 mM TCEP; final SEC buffer not given. To be noted: protein: recombinant; tags: expressed as N-terminal His6-Smt3 fusion; chain copies: 2; blunt.

Consider `C[C@H](CCC(=O)NCCC[N+](C)(C)CC(O)CS(=O)(=O)[O-])[C@H]1CC[C@H]2[C@@H]3[C@H](O)C[C@@H]4C[C@H](O)CC[C@]4(C)[C@H]3C[C@H](O)[C@]12C` (some centres unmarked) [CHAPSO, 3-([3-cholamidopropyl]dimethylammonio)-2-hydroxy-1-propanesulfonate], for which, at EcmrR (full length), the “cryo-EM structure of the complex” value is reported as “The density likely corresponds to the tetracyclic sterol head of CHAPSO”.

With `CCCCCCCCCCCCCCCC[N+](C)(C)C` [CTA^+], the “X-ray crystal structure, 1.4 Å” value at EcmrR CTD is recorded as “wherein both sites are occupied by cetyltrimethylammonium cation (CTA^+)”.

Consider “EcmrR (multidrug-sensing MerR family transcriptional regulator of Escherichia coli), full length, wild type (natural protein)”, for which, in data set [1], the stoichiometry N stood at 2.

B1: 54-bp heteroduplex promoter scaffold, 19-bp spacer (NT strand DNA-1 / T strand DNA-1) (dsDNA)
DNA 1: GCCTTGACCCTCCCCTAAGGGGAGGGTTTAGATTGTGTGCAGTCTGACGCGGCG
DNA 2: CGCCGCGTCAGACTCGTAGGAATCTAAACCCTCCCCTTAGGGGAGGGTCAAGGC
On to B1, for which, in the data set with EcmrR [2], the binding result is reported as “binds”.

B2: 54-bp fully complementary promoter scaffold, 19-bp spacer (NT strand DNA-1 / T strand DNA-2) (dsDNA)
DNA 1: B1 DNA 1
DNA 2: B1 DNA 2 with C15G, G16C, T17A, A18C, G19A, G20C
As for B2, the binding result with EcmrR [3] is “binds”.
